Results taken from US20150241442A1.

Biological target: Leukocyte Function Antigen-1 (LFA-1), on cells (Jurkat T cells, human T cells, PBMC) (human) (UniProt P20701)
Assay: cell-based or functional assay

Sequence of recombinant human ICAM-1-FC (P05362 28-480 limits assumed): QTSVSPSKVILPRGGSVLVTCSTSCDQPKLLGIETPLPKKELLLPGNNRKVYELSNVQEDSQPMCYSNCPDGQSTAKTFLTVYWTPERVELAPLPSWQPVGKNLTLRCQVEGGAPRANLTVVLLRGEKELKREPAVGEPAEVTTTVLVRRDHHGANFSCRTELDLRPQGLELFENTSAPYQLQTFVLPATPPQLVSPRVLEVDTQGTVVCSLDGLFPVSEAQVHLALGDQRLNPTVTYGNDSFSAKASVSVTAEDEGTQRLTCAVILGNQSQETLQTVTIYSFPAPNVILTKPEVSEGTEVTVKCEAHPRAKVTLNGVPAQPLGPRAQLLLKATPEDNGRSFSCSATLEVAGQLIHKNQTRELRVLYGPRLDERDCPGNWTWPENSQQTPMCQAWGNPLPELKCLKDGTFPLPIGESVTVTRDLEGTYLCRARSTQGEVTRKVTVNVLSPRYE
Sequence of Leukocyte Function Antigen-1 (LFA-1), on cells (Jurkat T cells, human T cells, PBMC) (human) (P20701 26-1170, chain 1 of 2): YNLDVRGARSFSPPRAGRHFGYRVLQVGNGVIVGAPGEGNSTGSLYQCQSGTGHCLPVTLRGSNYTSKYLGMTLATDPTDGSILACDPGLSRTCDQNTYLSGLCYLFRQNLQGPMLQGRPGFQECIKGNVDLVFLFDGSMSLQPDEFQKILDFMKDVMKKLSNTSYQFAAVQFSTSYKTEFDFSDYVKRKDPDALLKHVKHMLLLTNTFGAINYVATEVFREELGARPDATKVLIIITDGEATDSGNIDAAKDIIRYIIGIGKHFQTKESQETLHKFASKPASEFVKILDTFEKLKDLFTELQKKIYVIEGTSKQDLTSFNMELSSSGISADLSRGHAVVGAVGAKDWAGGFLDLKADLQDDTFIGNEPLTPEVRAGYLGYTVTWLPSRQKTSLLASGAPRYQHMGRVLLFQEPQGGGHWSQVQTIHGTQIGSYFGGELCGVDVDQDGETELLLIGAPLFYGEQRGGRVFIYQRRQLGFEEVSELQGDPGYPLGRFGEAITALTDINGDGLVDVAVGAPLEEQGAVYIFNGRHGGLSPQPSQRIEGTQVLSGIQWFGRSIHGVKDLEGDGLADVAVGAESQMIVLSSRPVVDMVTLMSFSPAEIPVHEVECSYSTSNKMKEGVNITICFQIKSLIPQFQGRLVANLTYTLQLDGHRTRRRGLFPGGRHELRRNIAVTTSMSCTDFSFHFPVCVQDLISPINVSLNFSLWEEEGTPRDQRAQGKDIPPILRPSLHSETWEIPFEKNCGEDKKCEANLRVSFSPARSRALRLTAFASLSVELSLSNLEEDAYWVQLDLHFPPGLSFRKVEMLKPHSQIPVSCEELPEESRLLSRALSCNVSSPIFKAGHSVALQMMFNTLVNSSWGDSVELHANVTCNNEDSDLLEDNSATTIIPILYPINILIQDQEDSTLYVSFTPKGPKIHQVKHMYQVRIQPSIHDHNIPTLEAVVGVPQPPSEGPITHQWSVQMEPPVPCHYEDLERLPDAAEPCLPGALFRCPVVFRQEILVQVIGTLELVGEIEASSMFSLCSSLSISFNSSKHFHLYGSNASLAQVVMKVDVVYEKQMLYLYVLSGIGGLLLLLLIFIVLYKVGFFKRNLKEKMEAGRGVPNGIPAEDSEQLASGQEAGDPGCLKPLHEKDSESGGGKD
Sequence of Leukocyte Function Antigen-1 (LFA-1), on cells (Jurkat T cells, human T cells, PBMC) (human) (P05107 23-769, chain 2 of 2, further chain): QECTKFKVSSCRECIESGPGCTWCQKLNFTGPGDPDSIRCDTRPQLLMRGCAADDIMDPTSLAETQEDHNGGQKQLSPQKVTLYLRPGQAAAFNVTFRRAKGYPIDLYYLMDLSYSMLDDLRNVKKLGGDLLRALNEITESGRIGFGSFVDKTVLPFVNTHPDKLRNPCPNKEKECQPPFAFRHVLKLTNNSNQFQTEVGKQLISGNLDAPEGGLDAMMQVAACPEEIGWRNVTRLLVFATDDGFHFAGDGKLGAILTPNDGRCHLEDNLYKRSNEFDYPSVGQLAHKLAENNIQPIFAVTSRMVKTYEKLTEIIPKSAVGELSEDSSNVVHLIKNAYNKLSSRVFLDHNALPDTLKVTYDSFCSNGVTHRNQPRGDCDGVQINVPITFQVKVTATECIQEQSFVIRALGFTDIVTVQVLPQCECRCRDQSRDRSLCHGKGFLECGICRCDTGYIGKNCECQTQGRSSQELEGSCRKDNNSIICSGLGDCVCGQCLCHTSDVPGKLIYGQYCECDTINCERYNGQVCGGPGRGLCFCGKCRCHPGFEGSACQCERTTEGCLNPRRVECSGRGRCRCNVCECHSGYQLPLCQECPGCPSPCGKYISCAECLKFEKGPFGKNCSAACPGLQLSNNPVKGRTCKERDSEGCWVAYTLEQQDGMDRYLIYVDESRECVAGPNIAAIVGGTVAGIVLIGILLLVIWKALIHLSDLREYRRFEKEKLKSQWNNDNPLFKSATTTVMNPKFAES

frequency of the perforin negative population, CD56+CD8med cells: 13.7%
granzyme-A negative population, CD56+CD8high cells: 4.12%
Substance: recombinant human ICAM-1-FC (from UniProt P05362 28-480) (Fc fusion)
